Here are results for 7 molecules from patent publication US20220195063A1 (BYONDIS B V, published 2022).

A value given as a limit tells only on which side of the number the result lay.

The target of test [1] is human SIRPαBIT (huSIRPαBIT), protein antigen (human) (UniProt P78324). Description: SPR, biotinylated antigen captured, 25 C. In general terms: SPR reads the build-up and loss of mass on a sensor chip optically.
The target in test [2] is T1, human SIRPα1 (huSIRPα1), protein antigen (human, UniProt P78324 31-370, limits assumed, biotinylated in the SPR assay).
T1 construct: Coated on the plate in ELISA, biotinylated and captured in SPR; also called v2
Nature of the test: SPR, biotinylated antigen captured, 25 C. As for the experimental part:
(§1) Surface Plasmon Resonance (SPR) assay: Affinity analysis was performed by single cycle kinetics analysis on a Surface Plasmon Resonance apparatus (Biacore T200 system, GE Life Sciences) at 25° C. Biotinylated SIRP antigens were captured on the surface of a chip suitable for biotinylated molecules (Sensor Chip CAP, GE Life Sciences) by injecting 5 μg/ml of the SIRP antigen in running buffer (10 mM HEPES buffer at pH 7.4 with 150 mM NaCl, 3 mM EDTA and 0.005% v/v polyoxyethylene (20) sorbitan monolaurate (Surfactant P20) for 60 sec at 10 μL/min after injection of a streptavidin conjugate (20× diluted biotin CAPture reagent, GE Life Sciences) for 60 sec at 10 μl/min. Baseline stabilization was set at 1 min after which five increasing concentrations of an anti-SIRP antibody in running buffer (10 mM HEPES buffer at pH 7.4 with 150 mM NaCl, 3 mM EDTA and 0.005% v/v polyoxyethylene (20) sorbitan monolaurate) were injected. For each step an association time of 150 sec was used, followed by a dissociation time of 1200 sec at the highest concentration only, all at a flow rate of 30 μL/min. Regeneration was performed with 6 M guanidine-HCl, 0.25 M NaOH solution (60 sec with flow rate of 30 μL/min). Double blank subtraction was performed on the observed sensorgrams using a non anti-SIRP (blank) immobilized reference flow channel and running buffer injection. Sensorgrams were fitted with a 1:1 Langmuir model for all tested anti-SIRP antibodies. The kinetic parameters (kₐ, kd and KD) were calculated using the Biacore T200 evaluation software (v3.1).

The target of test [3] is T2, human SIRPγ (huSIRPγ) (human, UniProt Q9P1W8 29-360, limits assumed, biotinylated in the SPR assay).
T2 construct: Coated on the plate in ELISA, biotinylated and captured in SPR
Nature of the test: SPR, biotinylated antigen captured, 25 C. As for the experimental part: as §1

Test [4] has as its target human SIRPαBIT (huSIRPαBIT), protein antigen (human) (UniProt P78324). Nature of the test: ELISA, antigen coated. (In an ELISA, binding on a coated surface is turned into a signal by an enzyme label.)
Test [5] addresses human SIRPβ1v1 (huSIRPβ1v1) (human) (UniProt O00241). Nature of the test: ELISA, antigen coated.
For test [6], the target named is human SIRPαBIT expressed on cells (human) (UniProt P78324). Description: flow cytometry, U937 cells.
The target is the same in test [7]. Description: flow cytometry, ExpiCHO-S cells.
For test [8], the target named is T1, human SIRPα1 (huSIRPα1), protein antigen. Description: ELISA, antigen coated. The protocol: (§2) ELISA assay: Solutions of huSIRPα₁, huSIRPαBIT, huSIRPβ₁ᵥ₁, huSIRPβ₁ᵥ₂, huSIRPγ and cySIRPα in phosphate buffered saline (PBS) were each added to a multiple well black polystyrene plate for ELISA and allowed to adhere for 1 h at RT. Unbound protein was removed with three washing steps using standard washing buffer. Subsequently, blocking buffer was added to the wells. After 1 h incubation at RT, the wells were washed three times with standard washing buffer. The antibodies in buffer at various concentrations were added to the wells and incubated at RT for 1 h. Unbound antibodies were removed with three washing steps using standard washing buffer. Goat anti human IgG (Fab′)₂:horse radish peroxidase (HRP) in buffer was added to the wells and incubated at RT for 1 h. 3,3′,5,5′-Tetramethylbenzidine (TMB) was added and after sufficient colour development HCl was added. Absorbance was read at 450 nm/620 nm.

Test [9] addresses T3, human SIRPβ1v2 (huSIRPβ1v2) (human, UniProt Q5TFQ8 30-371).
T3 construct: Coated on the plate in ELISA; Only the Ensembl protein number is printed; also called huSIRPß1v2
Description: ELISA, antigen coated. The protocol:
as §2

Test [10] has as its target T2, human SIRPγ (huSIRPγ). Nature of the test: ELISA, antigen coated. As for the experimental part:
as §2

The target of test [11] is T4, cynomolgus SIRPα (cySIRPα), protein antigen (cynomolgus monkey, UniProt A0A2K5VYQ9 31-369).
T4 construct: Coated on the plate in ELISA
T4 sequence: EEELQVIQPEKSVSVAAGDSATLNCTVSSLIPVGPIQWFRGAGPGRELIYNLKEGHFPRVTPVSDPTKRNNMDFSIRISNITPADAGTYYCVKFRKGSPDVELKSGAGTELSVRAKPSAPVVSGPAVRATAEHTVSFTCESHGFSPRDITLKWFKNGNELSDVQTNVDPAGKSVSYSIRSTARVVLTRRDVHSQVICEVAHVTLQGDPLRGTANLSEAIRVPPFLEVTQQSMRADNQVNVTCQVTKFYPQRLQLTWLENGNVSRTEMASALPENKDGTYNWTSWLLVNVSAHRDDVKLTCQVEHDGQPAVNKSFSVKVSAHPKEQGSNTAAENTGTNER
Nature of the test: ELISA, antigen coated. The protocol:
as §2

Test [12] deals with T5, human SIRPα1 expressed on cells (human, UniProt P78324 31-504).
T5 construct: whole, on cells; also called ExpiCHO-S (huSIRPα1); CHO cells expressing huSIRPα1
Nature of the test: flow cytometry, ExpiCHO-S cells. The text has this:
(§3) Flow Cytometry: U937 cells endogenously expressing human SIRPαBIT antigen and cells derived from a non-engineered subclone that has been screened and isolated from CHO-S Chinese hamster ovary cells (ExpiCHO-S) cells expressing human SIRPα₁, SIRPαBIT or cySIRPα antigen (100,000 cells/well in a 96-well plate) were washed three times with ice-cold FACS buffer (1×PBS (LONZA) containing 0.2% v/w BSA (Sigma-Aldrich, St. Louis, Mo.) and 0.02% v/w NaN₃ (Sigma-Aldrich), followed by the addition of a concentration range of each primary mAb (50 μL/well) diluted in ice-cold FACS buffer. After an incubation time of 30 min at 4° C., the cells were washed three times with ice-cold FACS buffer and 50 μL/well secondary mAb (AffiniPure F(ab′)₂ fragment Goat-anti-human IgG-APC, 1:6,000 dilution, Jackson Immuno Research) was added. After 30 min at 4° C., cells were washed twice and resuspended in 150 μL FACS buffer. Fluorescence intensities were determined by flow cytometry (BD FACSVerse, Franklin Lakes, N.J.) and indicated as the median fluorescence intensity (MFI-Median) for U937 cells and ExpiCHO-S cells. Curves were fitted by nonlinear regression using the sigmoidal dose-response equation with variable slope (four parameters) in GraphPad Prism (version 7.02 for Windows, GraphPad, San Diego, Calif.). EC₅₀ values were calculated as the concentration in μg/mL that gives a response half way between bottom and top of the curve, when using a 4-parameter logistic fit.
(In general: In flow cytometry, cells or beads pass a laser one at a time.)

The target of test [13] is T6, cynomolgus SIRPα expressed on cells (cynomolgus monkey, UniProt A0A2K5VYQ9 31-507).
T6 construct: whole, on cells; also called ExpiCHO-S (cySIRPα)
T6 sequence: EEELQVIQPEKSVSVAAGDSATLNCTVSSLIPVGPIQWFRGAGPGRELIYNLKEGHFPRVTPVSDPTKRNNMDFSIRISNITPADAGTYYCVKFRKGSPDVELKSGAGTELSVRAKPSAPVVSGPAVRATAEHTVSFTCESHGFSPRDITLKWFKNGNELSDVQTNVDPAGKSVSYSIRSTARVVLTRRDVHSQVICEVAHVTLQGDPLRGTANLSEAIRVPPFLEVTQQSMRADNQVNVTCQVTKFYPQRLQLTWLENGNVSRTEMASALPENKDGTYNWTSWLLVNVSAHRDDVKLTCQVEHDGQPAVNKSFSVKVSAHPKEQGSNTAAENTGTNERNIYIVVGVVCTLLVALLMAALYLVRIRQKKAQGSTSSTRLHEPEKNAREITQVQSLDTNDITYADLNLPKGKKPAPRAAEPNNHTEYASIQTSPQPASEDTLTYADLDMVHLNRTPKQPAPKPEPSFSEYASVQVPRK
Nature of the test: flow cytometry, ExpiCHO-S cells.
From the text: as §3

The term Kd denotes the constant that tells how readily two partners part at equilibrium. Low values mean higher affinity, high ones lower affinity. Usually EC50 stands for the concentration needed to bring the measured effect to its halfway point. A high value points to weaker potency.

T1 sequence (P78324 other isoform, or with tags, fused parts or gaps limits assumed): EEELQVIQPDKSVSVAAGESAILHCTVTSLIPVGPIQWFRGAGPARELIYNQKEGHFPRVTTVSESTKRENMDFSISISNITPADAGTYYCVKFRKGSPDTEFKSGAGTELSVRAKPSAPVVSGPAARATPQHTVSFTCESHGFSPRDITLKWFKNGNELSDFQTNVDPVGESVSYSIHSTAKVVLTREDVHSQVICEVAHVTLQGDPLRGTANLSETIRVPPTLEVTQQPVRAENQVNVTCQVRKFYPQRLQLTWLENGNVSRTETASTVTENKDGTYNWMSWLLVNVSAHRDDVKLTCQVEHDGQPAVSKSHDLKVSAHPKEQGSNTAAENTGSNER
Chain of human SIRPαBIT (huSIRPαBIT), protein antigen (human) (P78324 31-370): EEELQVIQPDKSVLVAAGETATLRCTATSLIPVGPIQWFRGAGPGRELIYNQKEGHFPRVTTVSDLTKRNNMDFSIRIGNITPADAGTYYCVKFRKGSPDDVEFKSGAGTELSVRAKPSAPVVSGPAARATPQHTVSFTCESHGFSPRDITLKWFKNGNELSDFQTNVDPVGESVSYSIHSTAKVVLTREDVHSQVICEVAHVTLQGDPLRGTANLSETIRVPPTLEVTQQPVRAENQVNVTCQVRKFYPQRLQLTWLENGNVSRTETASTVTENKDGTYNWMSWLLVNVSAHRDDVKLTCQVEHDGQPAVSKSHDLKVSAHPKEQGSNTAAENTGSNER
Chain of human SIRPβ1v1 (huSIRPβ1v1) (human) (O00241 30-371): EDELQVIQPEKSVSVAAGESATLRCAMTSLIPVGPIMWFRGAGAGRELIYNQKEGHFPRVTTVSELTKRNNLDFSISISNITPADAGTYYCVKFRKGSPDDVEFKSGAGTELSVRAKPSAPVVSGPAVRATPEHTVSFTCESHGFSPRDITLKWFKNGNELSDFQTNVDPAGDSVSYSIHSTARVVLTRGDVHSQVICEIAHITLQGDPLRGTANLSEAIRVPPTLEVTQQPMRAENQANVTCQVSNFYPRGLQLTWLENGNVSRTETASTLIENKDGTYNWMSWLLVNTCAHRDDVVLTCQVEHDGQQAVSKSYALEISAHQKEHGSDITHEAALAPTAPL
Chain of human SIRPαBIT expressed on cells (human) (P78324 31-504): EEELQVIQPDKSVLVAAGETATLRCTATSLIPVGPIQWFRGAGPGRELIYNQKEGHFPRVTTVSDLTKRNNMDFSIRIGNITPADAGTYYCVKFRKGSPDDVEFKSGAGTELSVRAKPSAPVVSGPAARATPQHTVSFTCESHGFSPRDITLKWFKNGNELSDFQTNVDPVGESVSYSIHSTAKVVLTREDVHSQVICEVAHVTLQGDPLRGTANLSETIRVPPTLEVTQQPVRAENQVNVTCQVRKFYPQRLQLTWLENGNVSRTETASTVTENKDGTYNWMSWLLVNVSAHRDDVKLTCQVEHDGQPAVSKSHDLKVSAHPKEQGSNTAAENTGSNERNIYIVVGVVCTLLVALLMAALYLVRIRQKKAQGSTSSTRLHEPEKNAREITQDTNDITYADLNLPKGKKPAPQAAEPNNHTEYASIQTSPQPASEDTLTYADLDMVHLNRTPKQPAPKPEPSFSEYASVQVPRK
T2 sequence (Q9P1W8 29-360 limits assumed): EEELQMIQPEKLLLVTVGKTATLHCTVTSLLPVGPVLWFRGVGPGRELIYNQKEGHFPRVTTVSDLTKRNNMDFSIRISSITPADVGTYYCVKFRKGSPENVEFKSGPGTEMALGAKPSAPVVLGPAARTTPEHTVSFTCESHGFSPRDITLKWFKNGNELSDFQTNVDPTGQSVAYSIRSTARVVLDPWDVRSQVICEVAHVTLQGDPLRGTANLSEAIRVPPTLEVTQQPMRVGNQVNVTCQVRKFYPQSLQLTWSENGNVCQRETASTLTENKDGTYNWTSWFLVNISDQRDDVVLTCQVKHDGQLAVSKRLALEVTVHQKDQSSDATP
T3 sequence (Q5TFQ8 30-371 limits assumed): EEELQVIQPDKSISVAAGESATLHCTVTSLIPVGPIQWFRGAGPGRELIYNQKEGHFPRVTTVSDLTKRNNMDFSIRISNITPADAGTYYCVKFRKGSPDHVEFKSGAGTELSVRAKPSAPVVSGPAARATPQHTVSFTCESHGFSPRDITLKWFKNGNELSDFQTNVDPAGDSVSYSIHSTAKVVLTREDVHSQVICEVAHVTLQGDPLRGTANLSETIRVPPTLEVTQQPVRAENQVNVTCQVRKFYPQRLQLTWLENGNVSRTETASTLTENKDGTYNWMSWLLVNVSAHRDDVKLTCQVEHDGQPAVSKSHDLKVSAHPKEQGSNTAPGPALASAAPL
T5 sequence (P78324 other isoform, or with tags, fused parts or gaps limits assumed): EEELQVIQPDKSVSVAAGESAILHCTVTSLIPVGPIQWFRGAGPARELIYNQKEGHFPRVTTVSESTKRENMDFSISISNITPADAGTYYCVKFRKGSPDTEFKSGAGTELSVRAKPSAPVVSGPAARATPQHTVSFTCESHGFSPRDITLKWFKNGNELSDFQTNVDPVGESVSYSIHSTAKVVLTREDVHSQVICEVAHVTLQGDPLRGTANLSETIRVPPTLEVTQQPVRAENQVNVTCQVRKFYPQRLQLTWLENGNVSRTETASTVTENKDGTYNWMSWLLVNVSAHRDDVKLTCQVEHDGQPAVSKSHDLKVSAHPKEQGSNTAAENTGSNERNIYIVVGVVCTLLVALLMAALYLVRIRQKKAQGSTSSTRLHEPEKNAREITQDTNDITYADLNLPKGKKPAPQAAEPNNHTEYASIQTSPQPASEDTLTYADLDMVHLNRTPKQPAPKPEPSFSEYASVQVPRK

SE5A5 (antibody): the values for the Kd (in [1]; in test [2]; with human SIRPγ (huSIRPγ) [3]) were 2.6 nM, 2.2 nM and 49 nM, respectively.

B1: anti-SIRPα antibody 5 (antibody, human IgG1, kappa, L234A L235A, V domains shown)
VH: QSVEESGGRLVTPGTPLTLTCTVSGFSLSSYVMGWFRQAAGKGLEYIGYINADGSPYYATWVNGRFTISKTPTTMDLKINSPTTEDTATYFCARVGPLGVDYFNIWGPGTLVTVSL
VL: DIVMTQTPASVEAAVGGTVTIKCQASQSINRYLTWYQQKPGQRPKLLIYYASTLESGVPSRFEGSGSGTDYTLTISDLESADAATYYCQSYYYISRTYAFGGGTEVVVKR
notes: Rabbit variable regions on human IgG1 LALA / kappa
Regarding B1, the EC50 in test [4] stood at 0.021 µg/mL; in test [5], 3.52 µg/mL; in [6], 0.16 µg/mL; in [7], 0.22 µg/mL; in test [8] it was 0.031 µg/mL; in test [9], 0.11 µg/mL. For the same molecule, the EC50 with human SIRPγ (huSIRPγ) [10] is above 100 µg/mL; in test [11], 0.123 µg/mL; in test [12], 0.27 µg/mL; in [13], 0.26 µg/mL.

B2: anti-SIRPα antibody 7 (antibody, human IgG1, kappa, L234A L235A, V domains shown)
VH: RSVEESGGRLVTPGTPLTLTCTVSGFSLSSHGISWVRQAPGKGLEYIGTIGTGVITYFASWAKGRFTGSKTSTTVDLKITSPTTEDTATYFCARGSAWNDPFDPWGPGTLVTVSS
VL: ALVMTQTPASVSAAVGGTVTTKCQASQSVYGNNDLAWYQHKPGQPPKLLIYLASTLATGVPSRFSGSGSGTQFTLTITGVQSDDAATYYCLGGGDDEADNVFGGGTEVVVKR
notes: Chimeric: rabbit variable regions on human IgG1 LALA / kappa; also called chimeric antibody 7
Regarding B2, the EC50 is 0.02 µg/mL in test [4]; 0.014 µg/mL in test [5]; 0.17 µg/mL in [6]; 0.21 µg/mL in [7]; above 100 µg/mL in [9]; above 100 µg/mL with human SIRPγ (huSIRPγ) [10]. Also, the EC50 in test [11] turned out to be 0.335 µg/mL; in test [13], 0.07 µg/mL. In test [1], the Kd is below 0.01 nM.

B3: 12C4huIgG1LALA (antibody, V domains shown)
VH: EVKLEESGGGLMQPGGSMKLSCVASGFTFSNYWMNWVRQSPEKGLEWVAEIRLKSNNYATHYAESVKGRFTISRDDSKSSVYLQMNNLRAEDTGIYYCIRDYDYDAYFDYWGQGTTLTVSS
VL: DIVLTQSPASLAVSLGQRATISCRASKSVSTSGYNYMYWYQQKPGQPPKLLIYLASNLESGVPARFSGSGSGTDFTLNIHPVEEEDAATYYCQHSGELPYTFGGGTKLEIKR
notes: HAVT20 leader left out; also called 12C4LALA; huIgG112C4LALA
Take B3: the EC50 in test [4] is 0.005 µg/mL; in test [5] it was 0.008 µg/mL; in [6], 0.19 µg/mL; in test [8], 0.007 µg/mL; in test [9], 0.006 µg/mL; with human SIRPγ (huSIRPγ) [10], 0.006 µg/mL. The EC50 in test [11] came to 0.005 µg/mL. Further, the Kd in [1] was 0.015 nM; in test [2], 0.087 nM; in the test with human SIRPγ (huSIRPγ) [3] it was 0.016 nM.

B4: anti-SIRPα antibody 2 (antibody, human IgG1, kappa, L234A L235A, V domains shown)
VH: QSVEESGGRLVTPGTPLTLTCTVSGFSLSNYAMHWVRQAPGKGLEWIGIIYTGGATSYATWAKGQFTISKTSTTVDLKITSPTTEDTATYFCARGDRDGYAYFNIWGPGTLVTVSL
VL: QIVMTQTPFSVSAVVGGTVTIKCQASHNIGSWLAWYQQKPGQRPKLLIYDASTLASGVSSRFKGSGSGTEFTLTISGVESADAATYYCQQGYGISYVHNVFGGGTEVVVKR
notes: as for B1
With B4, the concentration giving a half-maximal response (EC50) in test [4] was 0.027 µg/mL; in test [5], above 100 µg/mL; in [6] it was 0.14 µg/mL; in test [7], 0.27 µg/mL; in test [8], 0.033 µg/mL; in [9] it was 0.028 µg/mL. The EC50 with human SIRPγ (huSIRPγ) [10] was above 100 µg/mL; in test [11] it was 0.038 µg/mL; in test [12], 0.19 µg/mL; in test [13], 0.16 µg/mL.

B5: KWAR23 huIgG1LALA (antibody, V domains shown)
VH: EVQLQQSGAELVKPGASVKLSCTASGFNIKDYYIHWVQQRTEQGLEWIGRIDPEDGETKYAPKFQDKATITADTSSNTAYLHLSSLTSEDTAVYYCARWGAYWGQGTLVTVSS
VL: QIVLTQSPAIMSASPGEKVTLTCSASSSVSSSYLYWYQQKPGSSPKLWIYSTSNLASGVPARFSGSGSGTSYSLTISSMEAEDAASYFCHQWSSYPRTFGAGTKLELK
As to B5, in test [6], the EC50 was determined as 0.09 µg/mL. For the same molecule, the Kd in test [1] was below 0.01 nM; in test [2], 0.011 nM; in the test with human SIRPγ (huSIRPγ) [3] it was below 0.01 nM.

B6: KWAR23 mouse IgG2a (antibody, V domains shown)
VH: B5 VH
VL: B5 VL
As for B6, the Kd (in [1]; in test [2]; with human SIRPγ (huSIRPγ) [3]) was below 0.01 nM each time.
